Experimental data reported in paper PMC3561355, “NMR Structure of Integrin α4 Cytosolic Tail and Its Interactions with Paxillin” (PLoS ONE, 2013).

B1: integrin α4 cytosolic tail (Lys968-Asp999) (domain or fragment)
chain: KAGFFKRQYKSILQEENRRDSWSYINSKSNDD
notes: Used 15N-labelled or unlabelled in the HSQC experiments; also called α4 CT; full-length α4 CT; source: E. coli BL21(DE3), KSI fusion from inclusion bodies, purified (Ni-NTA, cyanogen bromide cleavage, HPLC); not shown: His6, N-terminal, cleaved; ketosteroid isomerase (KSI), N-terminal, cleaved
B2: paxillin LD3-containing peptide (peptide)
peptide: VRPSVESLLDELESSVPSPV
notes: paxillin stretch holding the LD3 repeat; also called peptide-containing LD3; source: synthetic peptide, bought: GL Biochem (Shanghai), further purified by reverse phase HPLC
B3: paxillin fragment residues G139-K277 (PaxLD2-LD4) (domain or fragment)
chain: MGSNLSELDRLLLELNAVQHNPPGFPADEANSSPPLPGALSPLYGVPETNSPLGGKAGPLTKEKPKRNGGRGLEDVRPSVESLLDELESSVPSPVPAITVNQGEMSSPQRVTSTQQQTRISASSATRELDELMASLSDFK
notes: initiation Met introduced before G139; paxillin residues G139-K277, holding the LD2, LD3 and LD4 repeats; Used 15N-labelled or unlabelled; also called recombinant paxillin (residues G139-K277 encompassing LD2-LD4); source: E. coli BL21(DE3), purified (NTA beads, HPLC)
B4: paxillin LD4-containing peptide (peptide)
peptide: ATRELDELMASLSDFKFMAQ
notes: paxillin stretch holding the LD4 repeat; runs four residues (FMAQ) beyond K277, the end of PaxLD2-LD4; also called peptide-containing LD4; source: synthetic peptide, bought: GL Biochem (Shanghai), further purified by reverse phase HPLC

Assays:
Conditions in all cases: both partners purified
[1] = target: B3; test: NMR titration; 15N-1H HSQC of 15N-labelled PaxLD2-LD4 (200 µM) without and with unlabelled α4 CT, molar ratios 1:1 and 1:2; 10 mM sodium phosphate, pH 6.5, 298 K
[2] = target: B1; test: NMR titration; 15N-1H HSQC of 15N-labelled α4 CT without and with unlabelled synthetic LD-containing peptides, ratio 1:4 (α4 CT:peptides)
[3] = target: B1; test: NMR titration; 15N-1H HSQC of 15N-labelled α4 CT (100 µM) without and with unlabelled PaxLD2-LD4, molar ratios 1:1 and 1:2; 10 mM sodium phosphate, pH 6.5, 298 K

Binder	binding result [2]	further results
B1		binding result [1]: binds
B2	binds	
B3		binding result [3]: binds
B4	binds	
